Assay results as given in the supplement of paper PMC10065799, “High-throughput profiling of sequence recognition by tyrosine kinases and SH2 domains using bacterial peptide display” (eLife, 2023).

Legend:
[1] = target: c-Src SH2; assay: SH2 binding enrichment of the phosphorylated peptide, bacterial display (enrichment ratio); higher = better substrate or ligand; peptides without Tyr show the background
[2] = target: Grb2 SH2 (UniProt P62993); assay: as above
[3] = target: SHP2-C SH2; assay: as above
[4] = target: Hck (UniProt P08631); assay: phosphorylation enrichment, bacterial display (enrichment ratio); higher = better substrate or ligand; peptides without Tyr show the background
Chain of Hck (P08631 whole entry, looked up): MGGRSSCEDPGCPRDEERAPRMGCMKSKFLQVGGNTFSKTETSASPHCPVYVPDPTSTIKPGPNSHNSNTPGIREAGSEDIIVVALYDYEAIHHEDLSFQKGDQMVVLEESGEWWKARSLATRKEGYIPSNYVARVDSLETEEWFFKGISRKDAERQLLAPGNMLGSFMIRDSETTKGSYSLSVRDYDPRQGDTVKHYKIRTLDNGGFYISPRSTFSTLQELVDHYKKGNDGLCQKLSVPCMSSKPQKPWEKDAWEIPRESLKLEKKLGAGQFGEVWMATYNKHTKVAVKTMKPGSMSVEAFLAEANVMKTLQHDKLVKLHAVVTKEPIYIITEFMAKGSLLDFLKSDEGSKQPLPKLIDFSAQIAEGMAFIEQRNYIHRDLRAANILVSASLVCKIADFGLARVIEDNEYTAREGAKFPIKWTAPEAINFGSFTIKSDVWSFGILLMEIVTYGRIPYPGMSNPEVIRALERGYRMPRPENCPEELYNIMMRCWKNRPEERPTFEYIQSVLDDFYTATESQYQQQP

[5] = target: EPHB2 (UniProt P29323); assay: as above
[6] = tested on: AncSZ; assay: as above
[7] = target: Jak2 (UniProt O60674); assay: as above
Chain of Jak2 (O60674 whole entry, looked up): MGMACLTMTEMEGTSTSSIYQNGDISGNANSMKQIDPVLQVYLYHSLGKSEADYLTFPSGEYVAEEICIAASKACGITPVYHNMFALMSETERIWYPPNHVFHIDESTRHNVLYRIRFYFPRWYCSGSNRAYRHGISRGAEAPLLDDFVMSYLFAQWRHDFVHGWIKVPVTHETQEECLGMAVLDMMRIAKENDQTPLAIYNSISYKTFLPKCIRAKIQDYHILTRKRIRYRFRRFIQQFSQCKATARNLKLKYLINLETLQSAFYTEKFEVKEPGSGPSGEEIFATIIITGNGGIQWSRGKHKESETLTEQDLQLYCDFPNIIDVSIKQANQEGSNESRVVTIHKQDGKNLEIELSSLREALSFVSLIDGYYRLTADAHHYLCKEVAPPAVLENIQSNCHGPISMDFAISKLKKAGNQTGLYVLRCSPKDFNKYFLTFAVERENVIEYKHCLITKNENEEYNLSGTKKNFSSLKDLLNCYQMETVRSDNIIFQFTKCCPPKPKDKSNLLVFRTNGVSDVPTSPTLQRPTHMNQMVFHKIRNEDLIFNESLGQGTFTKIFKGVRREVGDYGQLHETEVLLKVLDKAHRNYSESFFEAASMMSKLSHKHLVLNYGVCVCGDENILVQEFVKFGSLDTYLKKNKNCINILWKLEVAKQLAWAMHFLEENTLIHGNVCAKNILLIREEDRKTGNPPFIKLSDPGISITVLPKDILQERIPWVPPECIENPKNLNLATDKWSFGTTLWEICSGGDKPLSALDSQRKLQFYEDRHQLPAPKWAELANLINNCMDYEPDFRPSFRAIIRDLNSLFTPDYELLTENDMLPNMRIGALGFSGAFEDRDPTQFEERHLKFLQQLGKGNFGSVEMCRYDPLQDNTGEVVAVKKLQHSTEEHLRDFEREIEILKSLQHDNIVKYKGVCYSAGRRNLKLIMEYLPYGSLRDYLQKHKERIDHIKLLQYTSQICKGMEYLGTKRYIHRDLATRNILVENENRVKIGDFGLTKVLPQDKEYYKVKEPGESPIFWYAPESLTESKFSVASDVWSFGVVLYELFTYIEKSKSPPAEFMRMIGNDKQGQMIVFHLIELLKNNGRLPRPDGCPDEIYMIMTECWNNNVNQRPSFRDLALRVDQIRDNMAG

[8] = target: FGFR3 (UniProt P22607); assay: as above
[9] = target: MERTK (UniProt Q12866); assay: as above
Chain of MERTK (Q12866 whole entry, looked up): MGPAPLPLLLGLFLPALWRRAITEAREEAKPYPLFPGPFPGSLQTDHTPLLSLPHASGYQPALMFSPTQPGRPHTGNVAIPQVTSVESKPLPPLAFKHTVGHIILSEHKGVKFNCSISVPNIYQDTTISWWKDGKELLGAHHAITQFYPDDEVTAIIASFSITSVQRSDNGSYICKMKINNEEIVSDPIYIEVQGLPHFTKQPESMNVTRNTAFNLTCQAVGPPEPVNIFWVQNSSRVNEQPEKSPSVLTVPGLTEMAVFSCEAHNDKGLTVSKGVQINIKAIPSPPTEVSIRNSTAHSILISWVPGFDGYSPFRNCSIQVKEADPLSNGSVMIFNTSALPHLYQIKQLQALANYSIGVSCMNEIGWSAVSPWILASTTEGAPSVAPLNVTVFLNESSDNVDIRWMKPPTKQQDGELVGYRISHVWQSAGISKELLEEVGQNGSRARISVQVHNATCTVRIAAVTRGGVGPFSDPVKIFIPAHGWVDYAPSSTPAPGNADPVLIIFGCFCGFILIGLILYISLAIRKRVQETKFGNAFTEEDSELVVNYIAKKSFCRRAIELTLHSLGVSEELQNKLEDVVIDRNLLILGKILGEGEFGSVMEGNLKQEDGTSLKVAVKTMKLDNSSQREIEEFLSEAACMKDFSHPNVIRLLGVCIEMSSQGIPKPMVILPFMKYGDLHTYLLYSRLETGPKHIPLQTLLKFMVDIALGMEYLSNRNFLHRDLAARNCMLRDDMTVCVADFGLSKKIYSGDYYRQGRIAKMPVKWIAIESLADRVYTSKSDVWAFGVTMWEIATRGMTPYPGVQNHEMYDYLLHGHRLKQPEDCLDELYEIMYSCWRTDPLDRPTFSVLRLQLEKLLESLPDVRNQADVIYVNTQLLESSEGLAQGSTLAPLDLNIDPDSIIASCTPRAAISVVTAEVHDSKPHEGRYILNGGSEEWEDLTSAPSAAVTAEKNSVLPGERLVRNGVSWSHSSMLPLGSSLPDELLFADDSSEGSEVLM

[10] = tested on: c-Src; assay: as above
[11] = target: FGFR1 (UniProt P11362); assay: as above
Chain of FGFR1 (P11362 whole entry, looked up): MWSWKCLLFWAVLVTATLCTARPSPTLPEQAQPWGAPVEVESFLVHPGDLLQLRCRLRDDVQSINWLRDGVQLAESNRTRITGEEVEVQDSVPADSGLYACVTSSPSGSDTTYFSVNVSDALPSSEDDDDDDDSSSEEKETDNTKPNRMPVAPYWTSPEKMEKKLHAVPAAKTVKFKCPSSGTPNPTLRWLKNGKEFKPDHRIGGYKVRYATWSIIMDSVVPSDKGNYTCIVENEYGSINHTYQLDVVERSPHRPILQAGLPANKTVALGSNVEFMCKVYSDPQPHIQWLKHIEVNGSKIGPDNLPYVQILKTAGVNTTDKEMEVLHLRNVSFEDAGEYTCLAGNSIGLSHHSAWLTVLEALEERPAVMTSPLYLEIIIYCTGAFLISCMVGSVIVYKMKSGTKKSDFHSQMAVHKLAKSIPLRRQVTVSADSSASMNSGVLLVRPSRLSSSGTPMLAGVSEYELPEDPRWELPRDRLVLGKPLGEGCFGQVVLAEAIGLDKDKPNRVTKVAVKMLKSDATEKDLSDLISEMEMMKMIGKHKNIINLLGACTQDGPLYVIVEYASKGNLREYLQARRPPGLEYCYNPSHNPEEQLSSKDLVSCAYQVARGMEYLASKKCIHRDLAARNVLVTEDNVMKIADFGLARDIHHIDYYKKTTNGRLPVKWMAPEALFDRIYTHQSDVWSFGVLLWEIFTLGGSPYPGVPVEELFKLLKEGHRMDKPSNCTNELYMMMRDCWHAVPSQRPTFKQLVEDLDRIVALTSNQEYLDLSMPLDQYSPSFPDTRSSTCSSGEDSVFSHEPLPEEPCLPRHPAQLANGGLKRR

[12] = target: Fes (UniProt P07332); assay: as above
[13] = target: EPHB1 (UniProt P54762); assay: as above
Chain of EPHB1 (P54762 whole entry, looked up): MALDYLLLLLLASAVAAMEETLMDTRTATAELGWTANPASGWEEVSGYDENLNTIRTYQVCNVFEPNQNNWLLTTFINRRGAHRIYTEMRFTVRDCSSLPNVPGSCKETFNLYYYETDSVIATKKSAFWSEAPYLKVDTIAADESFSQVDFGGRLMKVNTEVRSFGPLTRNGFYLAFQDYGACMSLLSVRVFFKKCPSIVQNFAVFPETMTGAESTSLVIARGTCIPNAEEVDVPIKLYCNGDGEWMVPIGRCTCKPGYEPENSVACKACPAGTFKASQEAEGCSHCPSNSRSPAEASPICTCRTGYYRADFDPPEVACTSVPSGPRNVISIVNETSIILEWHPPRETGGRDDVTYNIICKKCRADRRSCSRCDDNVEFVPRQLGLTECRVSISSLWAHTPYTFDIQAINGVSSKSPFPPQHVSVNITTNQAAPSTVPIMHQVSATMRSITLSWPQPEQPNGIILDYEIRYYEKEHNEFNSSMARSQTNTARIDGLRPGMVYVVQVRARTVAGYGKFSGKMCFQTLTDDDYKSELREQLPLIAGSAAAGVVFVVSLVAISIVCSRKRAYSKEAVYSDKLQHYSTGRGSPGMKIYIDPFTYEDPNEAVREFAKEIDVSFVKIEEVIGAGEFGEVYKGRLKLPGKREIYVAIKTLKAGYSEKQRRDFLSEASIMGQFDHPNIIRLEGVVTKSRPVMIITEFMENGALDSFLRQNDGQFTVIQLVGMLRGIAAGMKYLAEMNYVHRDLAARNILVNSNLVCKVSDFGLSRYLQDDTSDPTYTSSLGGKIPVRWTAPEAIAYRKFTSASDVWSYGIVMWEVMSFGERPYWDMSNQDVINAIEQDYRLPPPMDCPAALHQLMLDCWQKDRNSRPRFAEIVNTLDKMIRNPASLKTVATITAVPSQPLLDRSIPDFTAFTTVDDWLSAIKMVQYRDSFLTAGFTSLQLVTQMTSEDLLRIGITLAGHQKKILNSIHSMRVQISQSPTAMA

[14] = tested on: Fer (mouse); assay: as above
[15] = target: Fyn (UniProt P06241); assay: as above
[16] = tested on: c-Abl (mouse); assay: as above
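Wherever SH2 binding enrichment of the phosphorylated peptide, bacterial display is given: peptide library displayed on the E. coli surface as eCPX fusions, selected cells deep-sequenced, score is each peptide's frequency after selection divided by its frequency in the input.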
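Wherever phosphorylation enrichment, bacterial display is given: 11-residue human phosphosite peptides and single-mutation variants displayed on the E. coli surface, counted by deep sequencing, each peptide's frequency after selection divided by its frequency in the unselected input library; frequency after pTyr selection over input frequency; kinase dosed for 20-30% of maximal phosphorylation in three min.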

Chain of Grb2 SH2 (P62993 whole entry, looked up): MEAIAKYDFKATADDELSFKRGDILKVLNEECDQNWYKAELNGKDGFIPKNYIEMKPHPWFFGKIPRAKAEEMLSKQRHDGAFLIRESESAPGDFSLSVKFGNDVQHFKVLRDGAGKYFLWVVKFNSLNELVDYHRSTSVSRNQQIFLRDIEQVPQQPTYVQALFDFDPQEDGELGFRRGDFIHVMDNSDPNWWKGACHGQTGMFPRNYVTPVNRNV

| Sequence | SH2 binding enrichment [1] | SH2 binding enrichment [2] | SH2 binding enrichment [3] | phosphorylation enrichment [4] | phosphorylation enrichment [5] | phosphorylation enrichment [6] | phosphorylation enrichment [7] | phosphorylation enrichment [8] | phosphorylation enrichment [9] | phosphorylation enrichment [10] | phosphorylation enrichment [11] | phosphorylation enrichment [12] | phosphorylation enrichment [13] | phosphorylation enrichment [14] | phosphorylation enrichment [15] | phosphorylation enrichment [16] |
| --- | --- | --- | --- | --- | --- | --- | --- | --- | --- | --- | --- | --- | --- | --- | --- | --- |
| LVSCTYQLATG [FGFR2_Y608_R612T] | 0.456 | 0.729 | 0.739 | 0.631 | 0.668 | 1.41 | 1.05 | 0.764 | 0.546 | 0.952 | 0.559 | 1.3 | 0.717 | 0.615 | 0.596 | 0.83 |
| LWKWKYEELKE [CCDC102B_Y299] | 0.81 | 1.43 | 0.808 | 0.513 | 0.493 | 1.28 | 1.09 | 1.24 | 0.336 | 0.27 | 0.573 | 1.73 | 0.92 | 0.712 | 0.631 | 0.725 |
| LYDPDFMKVIL [CYP4A22_Y104_Y104F] | 0.467 | 0.785 | 0.634 | 0.634 | 1.01 | 1.18 | 1.39 | 0.688 | 2.57 | 0.954 | 0.562 | 1.78 | 0.772 | 1.09 | 0.888 | 1.8 |
| MARDIYRASYY [ALK_Y1278] | 0.839 | 0.877 | 0.708 | 1.01 | 0.439 | 0.685 | 0.702 | 0.63 | 0.673 | 1.58 | 0.624 | 0.683 | 0.466 | 0.408 | 0.688 | 1.77 |
| MASISYDFCRV [BST2_Y6_T4I_YF] | 0.672 | 0.764 | 0.666 | 0.629 | 0.712 | 1.24 | 1.03 | 0.824 | 0.653 | 0.497 | 0.496 | 1.17 | 0.692 | 1.59 | 0.554 | 0.908 |
| MDDKEYYSVHN [MET_Y1234_Y1230D] | 0.557 | 0.952 | 0.759 | 0.619 | 0.62 | 1.99 | 1.03 | 1.88 | 0.373 | 0.695 | 2.06 | 1.06 | 0.613 | 0.54 | 0.575 | 0.747 |
| METKGYQSLPE [NR3C2_Y6_H7Q] | 0.841 | 0.728 | 0.557 | 0.423 | 0.449 | 0.682 | 0.77 | 0.568 | 0.361 | 0.326 | 0.449 | 0.825 | 0.495 | 0.448 | 0.421 | 0.683 |
| MFNPCYGLFEY [NEDD4L_Y680_Y679C] | 0.641 | 0.867 | 0.633 | 2.54 | 0.604 | 1.26 | 1.11 | 0.752 | 1.69 | 5.01 | 0.616 | 1.32 | 0.739 | 1.6 | 5.24 | 0.842 |
| MFNPFYGLFEF [NEDD4L_Y680_YF] | 1.17 | 1.56 | 1.5 | 2.35 | 0.549 | 0.998 | 0.852 | 0.794 | 5.83 | 5.41 | 0.602 | 1.04 | 0.513 | 5.44 | 4.38 | 0.775 |
| MGIMLYGVDSR [PKD1_Y3143_V3138M] | 0.439 | 0.61 | 0.653 | 0.55 | 0.576 | 0.931 | 1.03 | 0.694 | 0.475 | 0.496 | 0.449 | 1.08 | 0.546 | 0.529 | 0.467 | 0.745 |
| MKTISYETLIA [DOCK10_Y1350] | 1.97 | 0.747 | 0.792 | 0.501 | 0.474 | 0.847 | 0.927 | 0.622 | 0.384 | 0.379 | 0.472 | 0.926 | 0.53 | 0.497 | 0.431 | 0.526 |
| MNPPPYSQLLS [FGF23_Y154_F157L] | 1.34 | 0.776 | 0.656 | 0.568 | 0.606 | 0.692 | 0.523 | 0.71 | 0.451 | 0.644 | 0.527 | 0.623 | 0.639 | 0.483 | 0.522 | 0.489 |
| MRALTYCDLHK [KCNH2_Y827_V822M] | 0.626 | 0.703 | 0.708 | 0.507 | 0.523 | 0.853 | 0.771 | 0.536 | 0.365 | 0.37 | 0.509 | 1.09 | 0.73 | 0.507 | 0.407 | 0.626 |
| MSFDRYMAVCH [OR2A5_Y123_I126V_YF] | 0.845 | 0.789 | 0.684 | 0.638 | 0.838 | 1.09 | 0.927 | 0.738 | 0.567 | 0.473 | 0.532 | 1.1 | 0.858 | 0.558 | 0.585 | 0.931 |
| MSIWPYLQKID [MFSD8_Y63] | 0.71 | 0.838 | 0.997 | 0.468 | 0.472 | 0.789 | 0.627 | 0.599 | 0.302 | 0.323 | 0.422 | 0.854 | 0.667 | 0.362 | 0.329 | 0.699 |
| MSRDVYSTDYY [NTRK2_Y702] | 0.715 | 1.2 | 0.735 | 1.73 | 2.65 | 1.59 | 0.788 | 2.72 | 5.06 | 3.88 | 3.94 | 0.842 | 2.16 | 0.535 | 2.77 | 0.558 |
| MSSLPYMKVIF [SLC4A11_Y853_M856V] | 1 | 1.38 | 2.98 | 0.622 | 0.541 | 0.822 | 1.02 | 0.592 | 0.507 | 0.516 | 0.764 | 0.84 | 0.482 | 1.01 | 0.507 | 0.461 |

| Sequence | SH2 binding enrichment [1] | SH2 binding enrichment [2] | SH2 binding enrichment [3] | phosphorylation enrichment [4] | phosphorylation enrichment [5] | phosphorylation enrichment [6] | phosphorylation enrichment [7] | phosphorylation enrichment [8] | phosphorylation enrichment [9] | phosphorylation enrichment [10] | phosphorylation enrichment [11] | phosphorylation enrichment [12] | phosphorylation enrichment [13] | phosphorylation enrichment [14] | phosphorylation enrichment [15] | phosphorylation enrichment [16] |
| --- | --- | --- | --- | --- | --- | --- | --- | --- | --- | --- | --- | --- | --- | --- | --- | --- |
| NACGLYYKLHN [GATA2_Y376] | 0.716 | 0.739 | 0.547 | 1.21 | 0.774 | 1.5 | 2.27 | 1.48 | 2.29 | 1.54 | 1.43 | 1.3 | 1.13 | 0.56 | 0.504 | 0.922 |
| NDFGNYSNQSS [HNRNPA1_Y318_N319S] | 0.421 | 0.795 | 0.625 | 0.451 | 1.92 | 1.02 | 0.546 | 0.49 | 0.501 | 0.463 | 0.461 | 0.619 | 6.89 | 0.43 | 0.416 | 0.458 |
| NDKLRYEVSSP [CDH13_Y66] | 0.473 | 0.711 | 0.567 | 0.502 | 0.502 | 1.14 | 0.884 | 0.615 | 0.451 | 0.438 | 0.475 | 1.01 | 0.473 | 0.443 | 0.421 | 0.692 |
| NDTAGYFVIGG [SEL1L3_Y399_I401V] | 7.22 | 0.664 | 0.784 | 0.75 | 0.642 | 1.17 | 6.88 | 1.64 | 0.872 | 0.727 | 2.16 | 1.1 | 0.669 | 0.581 | 0.848 | 0.781 |
| NFATLYLKIFH [PDE6B_Y219_YF] | 0.781 | 1.26 | 1.1 | 0.497 | 0.599 | 1.21 | 0.953 | 0.734 | 0.457 | 0.434 | 0.669 | 1.27 | 0.604 | 0.502 | 0.412 | 0.83 |
| NFATLYLKIYH [PDE6B_Y219] | 0.539 | 0.887 | 0.859 | 0.42 | 0.574 | 0.989 | 1.27 | 0.709 | 0.392 | 0.403 | 0.464 | 1.28 | 0.564 | 0.492 | 0.42 | 0.827 |
| NGRTGYVLQPE [PLCG2_Y1036] | 0.496 | 0.793 | 0.644 | 0.474 | 0.384 | 0.588 | 0.566 | 0.431 | 0.399 | 0.416 | 0.383 | 0.757 | 0.435 | 0.466 | 0.448 | 0.494 |
| NGSKGYAFVHF [PABPC5_Y147_YF] | 3.1 | 1.09 | 25.9 | 0.445 | 0.606 | 0.879 | 0.825 | 0.611 | 0.444 | 0.407 | 0.5 | 0.875 | 0.481 | 0.478 | 0.469 | 0.755 |
| NGTVTYAIVAG [CDH23_Y1672] | 1.24 | 0.655 | 12.8 | 1.09 | 2.01 | 0.99 | 0.799 | 0.714 | 2.6 | 1.08 | 0.545 | 0.992 | 3.07 | 0.471 | 0.904 | 0.688 |
| NHQYDYTFHWT [CSNK1A1_Y294_D297H] | 2.86 | 1.15 | 0.938 | 0.758 | 3.07 | 2.13 | 0.892 | 3.88 | 3.15 | 1.84 | 5.52 | 0.938 | 3.18 | 9.26 | 0.602 | 0.7 |
| NLSVPYDSSLK [ABCC8_Y1353_R1352P] | 0.489 | 0.765 | 0.735 | 0.445 | 0.509 | 0.601 | 0.588 | 0.503 | 0.426 | 0.508 | 0.445 | 0.68 | 0.451 | 0.418 | 0.41 | 0.516 |
| NLTLKYPIEHG [ACTA1_Y71_I66N] | 0.507 | 0.804 | 0.718 | 0.446 | 0.541 | 0.767 | 0.669 | 0.549 | 0.407 | 0.417 | 0.598 | 0.93 | 0.493 | 0.375 | 0.47 | 0.717 |
| NMHSTYAKLAA [SEC22B_Y193] | 1.71 | 0.796 | 13.7 | 0.948 | 0.451 | 0.382 | 0.362 | 0.349 | 0.38 | 0.375 | 0.385 | 0.401 | 0.437 | 0.34 | 0.415 | 0.47 |
| NNHGNYIVHLG [ETFDH_Y172_R175H] | 0.587 | 0.863 | 0.856 | 0.511 | 2.19 | 0.71 | 0.583 | 0.537 | 0.493 | 0.391 | 0.623 | 0.698 | 4.2 | 0.712 | 0.525 | 0.53 |
| NPIGLYSAETL [LDB3_Y202] | 0.486 | 0.813 | 0.769 | 0.967 | 1.74 | 0.691 | 0.71 | 0.498 | 4.18 | 0.962 | 0.451 | 0.72 | 1.73 | 1.12 | 0.666 | 0.496 |
| NPQKSYFICLY [WAS_Y83_R86C] | 0.412 | 1.11 | 0.66 | 0.438 | 0.604 | 1.11 | 1.12 | 0.975 | 0.557 | 0.415 | 0.848 | 1.2 | 0.675 | 0.496 | 0.443 | 0.925 |
